Assay results reported in publication PMC4021073, “Breast tumor specific mutation in GATA3 affects physiological mechanisms regulating transcription factor turnover”.

Molecular target: GATA3 DBD wild-type (UniProt P23771-2 261-371)
Experiment: EMSA; 0.5-4 uM protein, 30 uM DNA; 28 mM Tris-HCl pH 7.5, 120 mM NaCl, 1 mM DTT, 0.8 mM 2-mercaptoethanol, 4% glycerol, 0.4 uM zinc sulfate; 10 min at 37 C; 10 ul
Conditions: protein: recombinant; (pET-15b hexahistidine fusion); label: none (ethidium bromide stain); blunt (20 bp; one strand printed)

Sequence of GATA3 DBD wild-type (P23771 260-370): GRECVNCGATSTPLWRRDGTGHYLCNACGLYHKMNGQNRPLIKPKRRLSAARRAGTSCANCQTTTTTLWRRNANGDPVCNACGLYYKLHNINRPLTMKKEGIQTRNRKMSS

B1: GATA+ 20 bp (dsDNA)
DNA 1: AATGTCCATCTGATAAGACG
DNA 2: CGTCTTATCAGATGGACATT
B1: binds.
